Patent US20240043504A1 (published 2024)

How the values were obtained:
[1] = biological target: SARS-COV-2 RBD-mFc (SARS-CoV-2); assay: Luminex beads
[2] = biological target: SARS-CoV-2 Spike Protein (S1 Subunit, His Tag) (Sino 40591-V08H) (SARS-CoV-2, UniProt P0DTC2 16-685); assay: Luminex, supernatant
[3] = biological target: SARS-CoV-2 Spike Protein (S1 Subunit, Fc Tag) (Sino 40591-V02H) (SARS-CoV-2, UniProt P0DTC2 16-685); assay: Luminex, supernatant

B1: mAb10955 (antibody, V domains shown)
VH: EVQLVESGGGLVQPGGSLRVSCAASGFTVSRNYMSWVRQAPGKGLEWVSVIYSGGSTFYADSVKGRFTISRDNSKNTLYLQMNSLRAEDTAIYYCARYIPRFDPWGQGTLVTVSS
VL: DIQMTQSPSSLSASVGDRVTITCQASQDISNYLNWFQQKPGRAPKLLIYDASNLETGVPSRFSGSGSGTDFTFTISSLQPEDIATYYCQQYDNLPITFGQGTRLEIKR
binding result [1]: binds

B2: mAb10956 (antibody, V domains shown)
VH: EVQLVESGGGLVQPGGSLRLSCAASGLTVSSNYMSWVRQAPGKGLEWVSVIYSGGSTFYADSVKGRFTISRDNSKNTLYLQMNSLRAEDTAVYYCARDLIKYGMDVWGQGTTVTVSS
VL: not shown
binding result [1]: binds

B3: mAb10957 (antibody, V domains shown)
VH: EVQLVESGGGLVQPGGSLRLSCAASGVTVSSNYMSWVRQAPGKGLEWVSVIYSGGSTFYADSVKGRFTISRDNSKNTLFLQMNSLRIEDTAVYYCARDLGPYGMDVWGQGTTVTVSS
VL: DIQLTQSPSFLSASVGDRVTITCRASQGISSYLAWYQQKPGKAPKLLIYAASTLQSGVPSRFSGSGSGTQFILTISSLQPEDFATYYCQQLNSYPGFTFGPGTKVDIKR
binding result [1]: binds

B4: mAb11010 (antibody, V domains shown)
VH: QVQLVESGGGVVQPGRSLRLSCAASGFTFSSYGMHWVRQAPGKGLEWVAVISYDGSYKYYADSVKGRFTISRDNSKNTLYLQMNSLRAEDTAVYYCAIDGGTVTTIFDYWGQGTLVTVSS
VL: not shown
binding result [1]: binds

B5: mAb11004 (antibody, V domains shown)
VH: QVQLVESGGGVVQPGRSLRLSCVASGFTFSIYGMDWVRQAPGKGLEWVAVISYDGSNKYYADSVKGRFTISRDNSKNTLYLQMNSLRPEDTAVYYCAKDREAAADAFDIWGQGTMVTVSS
VL: DIQMTQSPSSVSASVGDRVTITCRASQGISSWLAWYQQKPGKAPKLLIYAASSLHSGVPSRFSGSGSGTDFTLTISSLQPEDFATYYCQQANSFRLTFGGGTKVEIK
binding result [1]: binds

B6: mAb11006 (antibody, V domains shown)
VH: EVQLVESGGGLVQPGGSLRLSCAASGFIVSRNYMSWVRQAPGKGLEWVSVIYSGGSTFYADSVKGRFTISRHNSKNTLYLQMNSLKAEDTAVYYCARELRGYFDYWGQGTLVTVSS
VL: DIQLTQSPSFLSASVGDRVTITCWASQGISSYLAWYQQKPGKAPKLLIYAASTLQSGVPSRFSGSGSGTEFTLTISSLQPEDFATYYCQLLNSYPYTFGQGTKLEIK
binding result [1]: binds

B7: mAb11008 (antibody, V domains shown)
VH: EVQLVESGGGLVQPGGSLRLSCAASGFTVSSNYMTWVRQAPGKGLEWVSVIYSGGSTFYADSVKGRFTISRHNSENTLYLQMNSLRAEDTAVYYCARDLAAAGTDYWGQGALVTVSS
VL: DIQLTQSPSFLSASVGDRVTITCWASQGISSYLAWYQQKPGKAPKLLIYAASTLQSGVPSRFSGSGSGTEFTLTISSLQPDDFATYYCQHLNSYLYTFGQGTKLEIK
binding result [1]: binds

B8: mAb10998 (antibody, V domains shown)
VH: EVQLVESGGGLVHPGGSLRLSCAASGLTVSSNYMSWVRQAPGKGLEWVSVIYSGGSTYYADSVKGRFTISRHNSKNTLFLQMNSLRAEDTAVYYCARDRPITGTTLDVWGQGTTVTVSS
VL: DIQMTQSPSSLFASVGDRVTITCRASQSISSYLNWYQQKPGKAPKLLIYAASSLQSGVPSRFSGSGSGTDFTLTISSLQPEDFAFYYCQQTYSTPPITFGQGTRLEIK
binding result [1]: binds

B9: mAb11002 (antibody, V domains shown)
VH: EVQLVESGGGLVQPGGSLRLSCAASGFTVSSNYMSWVRQAPGKGLEWVSVIYSGGSTFYADSVKGRFTISRHNSKNTLYLQMNSLRAEDTAVYYCAREGYGMDVWGQGTTVTVSS
VL: not shown
binding result [1]: binds

B10: mAb10913 (antibody, V domains shown)
VH: EVQLVESGGGLVQPGGSLRLSCAASGFTFRNYEMNWVRQAPGKGLEWVSYITSSGSTMYYADSVKGRFTISRDNAKNSLYLQMNSLRAEDTAVYYCARDGFYYYYAMDVWGQGTTVTVSS
VL: QSVLTQPPSVSAAPGQKVTISCSGSSSNIGNNYVSWYQQLPGTAPKLLIYDNNKRPSGIPDRFSGSKSGTSATLGITGLQTGDEADYYCGTWDSSLSVGRVFGTGTKVTVLG
MFI [2]: 24900 MFI | MFI [3]: 18900 MFI

B11: mAb10932 (antibody, V domains shown)
VH: EVQLVESGGGLVQSGGSLRLSCAASGLTVSSNYMSWVRQAPGKGLEWVSVIYSGGSTFYSDSVKGRFTISRHNSKNTLYLQMNSLRAEDTAVYYCARARGDAFDIWGQGTMVTVSS
VL: not shown
MFI [2]: 22100 MFI | MFI [3]: 17600 MFI

B12: mAb10934 (antibody, V domains shown)
VH: not shown
VL: DIQMTQSPSSLSASVGDRVTITCQASQDIWNYINWYQQKPGKAPKLLIYDASNLKTGVPSRFSGSGSGTDFTFTISSLQPEDIATYYCQQHDDLPPTFGQGTKVEIKR
MFI [2]: 27500 MFI | MFI [3]: 20600 MFI

B13: mAb10935 (antibody, V domains shown)
VH: EVQLVESGGGLVQPGGSLRLSCAASGFTVSSNYMSWVRQAPGKGLEWVSLIYSGGSTYYADSVKGRFTISRHNSKNTLYLQMNSLRSEDTAVYYCARVPLGDYYYGMDVWGQGTTVTVSS
VL: DIQMTQSPSSLSASVGDRVTITCQASQDINKYLNWYQQKPGKAPKLLIYDASNLETGVPSRFSGSGSGTDFTFTISSLQPEDIATYYCQQSDNLPLTFGGGTKVEIKR
MFI [2]: 25600 MFI | MFI [3]: 20000 MFI

B14: mAb10937 (antibody, V domains shown)
VH: QITLKESGPTLVKPTQTLTLTCTFSGFSLSTNVVGVGWIRQPPGKALEWLALIYWNDDKRYSPSLKSRLTITKDTSKNQVVLTMTNMDPVDTATYYCAHGPTGDYFDYWGQGTLVTVSS
VL: not shown
MFI [2]: 26400 MFI | MFI [3]: 19600 MFI

B15: mAb10921 (antibody, V domains shown)
VH: EVQLVESGGGLVQPGGSLRLSCAASGITVSSNYMSWVRQAPGKGLEWVSVIYSGGSTFYADSVKGRFTISRHNSKNTLYLQMNSLRAEDTAVYYCARERNFDAFDIWGQGTMVTVSS
VL: DIQMTQSPSSVSASVGDRVTITCRASQGISSWLAWYQQKPGKAPKLLIYAASSLQSGVPSRFSGSGSGTDFTLTISSLQPEDFATYYCQQANSFPLFTFGPGTKVDIKR
MFI [2]: 12200 MFI | MFI [3]: 8960 MFI

B16: mAb10930 (antibody, V domains shown)
VH: EVQLVESGGGLVQPGRSLRLSCAASGFTFDDYAMYWVRQAPGKGLEWVSGISWNSGSIGYADSVKGRFTISRDNAKNSLYLQMNSLRAADTALYYCAKDKDWNSRGYYYYGMDVWGQGTTVTVSS
VL: not shown
MFI [2]: 21200 MFI | MFI [3]: 16500 MFI

B17: mAb10939 (antibody, V domains shown)
VH: EVQLVESGGGLVQPGGSLRLSCAASGLTVSSNYMNWVRQVPGKGLEWVSVIYSGGSKFYVDSVKGRFTISRHNSKNTLYLQMNSLRPEDTAVYYCTRDAQYYGMDVWGQGTTVTVSS
VL: DIQMTQSPSSLSASVGDRVTITCRASQSISTYLHWYQQKPGEAPKLLIYAASSLQSGVPSRFSGSGSGTDFTLTISSLQPEDFATYYCQQSYSTPPEIFGQGTKLEIKR
MFI [2]: 23900 MFI | MFI [3]: 18200 MFI

B18: mAb10982 (antibody, V domains shown)
VH: EVQLVESGGGLVQPGGSLRLSCAASGLTVSSNYMSWVRQAPGKGLEWVSVIYSGGTTYYADSVKGRFTISRHNSKNTLSLQMNSLRAEDTAVYYCARGEGANYYGMDVWGQGTTVTVSS
VL: QSVLTQPPSVSGAPGQRVTISCTGSSSNIGTGYDVHWYQQLPGTAPKLLIYGNSNRPSGVPDRFSGSKSGTSASLAITGLQAEDEADYYCQSYDSSLSGYVVFGGGTKLTVLG
MFI [2]: 14000 MFI | MFI [3]: 10800 MFI

B19: mAb10985 (antibody, V domains shown)
VH: EVQLVESGGGLVQPGRSLRLSCAASGFTFDDYAMHWVRQAPGKGLEWVSGISWNRGSIGYADSVKGRFTISRDNAKNSLYLQMSSLRAEDTALYYCAKDGERWDSVVVPSARNGMDVWGQGTTVTVSS
VL: QSVLTQPPSVSGAPGQRVTISCTGSSSNIGAGYDVHWYQQLPGTAPKLLIYGNSNRPSGVPDRFSGSKSGTSASLAITGLQAEDEADYYCQSYDSSLSGSYVFGTGTKVTVLG
MFI [3]: 16200 MFI

B20: mAb10986 (antibody, V domains shown)
VH: EVQLVESGGGLVQPGGSLRLSCAASEFTVSSNYMSWVRQAPGKGLEWVSVIYSGGSTFYADSVKGRFTISRDNSKNTLYLQMNSLRAEDTAVYYCARALPYGDLHFDYWGQGTLVTVSS
VL: QSVLTQPPSVSGAPGQRVTISCTGSSSNIGTGYDVHWYQQLPGTAPKLLIYGNTNRPSGVPDRFSGSKSGTSASLAITGLQAEDEADYYCQSYDSSLSDSYVFGTGTKVTVLG
MFI [2]: 19100 MFI | MFI [3]: 16000 MFI

B21: mAb10913 (antibody, V domains shown)
VH: EVQLVESGGGLVQPGGSLRLSCAASGFTFRNYEMNWVRQAPGKGLEWVSYITSSGSTMYYADSVKGRFTISRDNAKNSLYLQMNSLRAEDTAVYYCARDGFYYYYAMDVWGQGTTVTVSS
VL: QSVLTQPPSVSAAPGQKVTISCSGSSSNIGNNYVSWYQQLPGTAPKLLIYDNNKRPSGIPDRFSGSKSGTSATLGITGLQTGDEADYYCGTWDSSLSVGRVFGTGTKVTVLG
binding result [1]: binds

B22: mAb10914 (antibody, V domains shown)
VH: EVQLVESGGGLVQPGGSLRLSCAASGLIVSRNYMIWVRQAPGKGLEWVSVIYSGGSTFYADSVKGRFTISRHNSKNTLYLQMNSLRAEDTAVYYCARDLGTGGMDVWGQGTTVTVSS
VL: DIQLTQSPSFLSASVGDRVTITCWASQGISSYLAWYQQKPGKAPKLLIYAASTLQSGVPSRFSGSGSGTEFTLTISSLQPEDFATYYCQQLNSYPLTFGGGTKVEIKR
binding result [1]: binds

B23: mAb10915 (antibody, V domains shown)
VH: EVQLVESGGGLVQPGGSLRLSCAASGFTVSSNYMNWVRQAPGKGLEWVSVIYSGGSTFYADSVKGRFTISRHNSKNTLYLQMNSLRPEDTAVYYCARDLGGYFDYWGQGTLVTVSS
VL: not shown
binding result [1]: binds
